T1: human soluble IL-6R, recombinant (human, UniProt P08887 20-358)
T1 construct: also called human IL6-R; bio-IL-6R
T1 sequence (looked up): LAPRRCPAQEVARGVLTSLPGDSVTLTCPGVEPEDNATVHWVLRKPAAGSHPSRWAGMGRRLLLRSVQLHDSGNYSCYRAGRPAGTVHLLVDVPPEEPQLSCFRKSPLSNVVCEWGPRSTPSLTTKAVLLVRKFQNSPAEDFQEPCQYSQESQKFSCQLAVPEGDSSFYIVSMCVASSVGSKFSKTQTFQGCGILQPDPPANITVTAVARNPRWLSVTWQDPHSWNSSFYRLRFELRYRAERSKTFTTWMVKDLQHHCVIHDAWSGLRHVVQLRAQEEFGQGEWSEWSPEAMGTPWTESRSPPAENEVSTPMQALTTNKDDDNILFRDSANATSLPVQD


What was measured:
[1] = biological target: T1, human soluble IL-6R, recombinant; assay: Biacore, periplasmic extract
Experimental: Periplasmic extracts of representative family clones were also analyzed on Biacore. Dissociation curves were used to calculate koff rates. koff rates are depicted in Table C-6.

[2] = biological target: cynomolgus IL-6R used in Biacore (cynomolgus monkey); assay: Biacore, periplasmic extract
[3] = biological target: IL-6R on the surface of TF-1 cells (UniProt P08887); assay: cell-based or functional assay
IL-6R on the surface of TF-1 cells, sequence (P08887 20-468 limits assumed): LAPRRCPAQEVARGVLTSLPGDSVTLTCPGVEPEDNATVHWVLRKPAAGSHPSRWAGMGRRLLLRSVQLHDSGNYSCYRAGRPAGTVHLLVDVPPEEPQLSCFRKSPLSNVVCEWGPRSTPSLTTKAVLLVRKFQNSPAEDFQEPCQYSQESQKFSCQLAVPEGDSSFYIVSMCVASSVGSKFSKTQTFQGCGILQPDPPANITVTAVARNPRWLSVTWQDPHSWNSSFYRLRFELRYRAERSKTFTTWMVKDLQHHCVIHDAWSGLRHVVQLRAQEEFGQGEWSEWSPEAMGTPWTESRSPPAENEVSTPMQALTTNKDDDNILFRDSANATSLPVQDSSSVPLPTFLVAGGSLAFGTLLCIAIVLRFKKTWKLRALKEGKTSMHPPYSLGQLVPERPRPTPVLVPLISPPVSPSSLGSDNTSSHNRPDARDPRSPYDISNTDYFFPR

Binder	koff [1]	koff [2]	other results
IL6RPMP106B2 (VHH, family 6; periplasmic extract) VHH: EVQLVESGGGLVQAGGSLRLSCAASGSIFRINAMGWYRQAPGKQRELVAAAISGGSTNYADFVKGRFTISRDNAKNTVYLQMNSLKPEDTAVYYCNALVVSHNYSDYVPFPDDYWGQGTQVTVSS	0.01 s⁻¹	–	–
IL6RPMP105D3 (VHH, family 6; periplasmic extract) VHH: EVQLEESGGGLVQAGGSLRLSCAASGSIFRINAMGWYRQAPGKQRELVAAAISGGSTNYADFVKGRFTISRDNAKNTVYLQMNSLKPEDTAVYYCNALVVSHNYSDYVPFPDDYWGQGTQVTVSS	0.01 s⁻¹	–	–
IL6RPMP108E9 (VHH, family 15; periplasmic extract) VHH: EVQLVESGGGLVQAGGSLRLSCAFSRRSFGNFPMGWFRQRPGEEREYVAVISWNNNYIHYRDSVKGRFTASRDTSENRMYLQMNGLKPEDTAVYYCAARTKDNTLFTPAEEYDYWGQGTQVTVSS	–	–	binding result [1]: no binding
IL6RPMP101G11 (VHH, family 2; periplasmic extract) VHH: EVQLVESGGGLVQPGGSLRLSCAASASGFTLDYYAIGWFRQAPGKEREGVSCISSTDGSTYYADSVKGRFTISRDNAKNTVYLQMNSLNPEDTGVYTCAAVLTTAQAMGVPTRSYEYDYWGQGTQVTVSS	0.00042 s⁻¹	–	–
IL6RPMP104E7 (VHH, family 18; periplasmic extract; also called PMP104E07) VHH: EVQLVESGGGLVQAGGSLRLSCAAGGSIFSINAMGWYRQAPGKQRELVASITSGGSTTYADSVKGRFTISRDNAKDTVYLQMNSLKPEDTAVYYCNAHIRFPFPNDYWGQGTQVTVSS	0.001 s⁻¹	–	–
IL6RPMP107B4 (VHH, family 17; periplasmic extract; also called PMP107B04) VHH: EVQLVESGGGLVQAGGSLRLSCVASGLRLNMHRMGWFRQAPGKEREFVARIFTDDGDSYYADSVQGRFTISGDNAKNTVYLQMNSLKPEDTGVYFCAAGYMSGAESPIGYDNWGQGTQVTVSS	0.01 s⁻¹	0.01 s⁻¹	–
IL6RPMP106D6 (VHH, family 22; periplasmic extract; also called PMP106D06) VHH: EVQLVESGGGLVQAGGSLRLSCAASGFTFDDYAIGWFRQAPGKEREGVSCMISSDGSTYYADSVKGRFTISSDNAKNTVYLQMDSLKPEDTAVYYCAADLSLYGCYVGDRDLYDYDYWGQGTQVTVSS	0.001 s⁻¹	–	–
IL6RPMP104B8 (VHH, family 3; also called PMP104B08; IL6R104B8) VHH: EVQLVESGGGLVQAGGSLRLSCAASGFAFDDYAIGWFRQAPGKEREGVSSISSSNGNTYYADSVRGRFTISSDNAKNTVYLQMNSLKPEDTGVYYCAAIWGIFFNEKMPVGAYDYWGQGTQVTVSS	0.01 s⁻¹	0.01 s⁻¹	IC50, IL-6-dependent proliferation of TF-1 cells [3]: 245 nM
IL6RPMP105H10 (VHH, family 3; periplasmic extract) VHH: EVQMVESGGGLVQAGGSLRLSCAASGFAFDDYAIGWFRQAPGKEREGVSSISSSNGNTYYADSVRGRFTISSDNAKNTVYLQMNSLKPEDAGVYYCAAIWGIFFNEKMPVGAYDYWGQGTQVTVSS	0.01 s⁻¹	0.01 s⁻¹	–
IL6RPMP120G6 (VHH) VHH: EVQLVESGGDLVQTGGSLRLSCAASGITVSDRAMGWYRQAPGKQREMVAGVSRGGMTSYADSVKGRLTISRDNAKNSVYLQMNSLNPEDTAVYYCSAYYRYGSSVPQYWGQGTQVTVSS	–	–	IC50, IL-6-dependent proliferation of TF-1 cells [3]: 10.2 nM
IL6RPMP103B2 (VHH) VHH: EVQLVESGGGLVQPGGSLRLSCAASGSTFSINMMAWYCQAPGKQRELVASISSGGGINYADSVKGRFTISRDYAENSVDLQMNSLKPEDTAVYYCNARGTYLNGDHYSTNYNSWGQGTQVTVSS	–	0.00045 s⁻¹	–
IL6RPMP103A2 (VHH) VHH: EVQLVESGGGLVQPGGSLRLSCAASGSIFSINTMGWYRQVPGKQRELVATVRSGSITNYADSVQDQFTITRDIDENTVYLQMNSLKPEDTAVYYCLTRASVPGRGYQDYWGQGTQVTVSS	–	0.001 s⁻¹	–
IL6RPMP103F2 (VHH, family 26; periplasmic extract) VHH: EVQLVESGGGLVQAGGSLRLSCVASGHTSDTYIMAWFRQAPGKEREFVASILWDGSITYYADSVKDRFTISRDISRKTLYLQMNSLRPEDTATYTCARGIYFSRRYVDPGIYGTWGQGTQVTVSS	–	–	binding result [1]: no binding
IL6RPMP101A5 (VHH, family 5; periplasmic extract) VHH: EVQLVESGGGLVQAGGSLRLSCTASGRTFSDYDMGWFRQAPGKERECVAIIDTNGDNTLIVGSVKGRFAISSDNAKNTVYLQMNSLLPEDTAVYTCAAGVWSSLRHTAANYWGQGTQVTVSS	0.00027 s⁻¹	0.00045 s⁻¹	–
IL6RPMP108C10 (VHH) VHH: EVQLVESGGGLVQPGGSLRLSCTASGRTFSDYDMGWFRQAPGKERECVAVIDTNGDNTLTVGSVKGRFAISRDNAKNTVYLQMNSLLPEDTAVYTCAAGAWSSLRSTAANYWGQGTQVTVSS	–	0.00071 s⁻¹	–
IL6RPMP104B9 (VHH, family 5; periplasmic extract) VHH: EVQLVESGGGLVQAGGSLRLSCTASGRTFSDYDMGWFRQAPGKERECVAIIDTNGDNTLIVGSVKGRFAISSDNAKNTVYLQMNSLLPEDTAVYTCAAGVWSSLRHTAANYWGQGTQVTVSS	0.00023 s⁻¹	0.00074 s⁻¹	–
IL6RPMP108C9 (VHH, family 16; periplasmic extract) VHH: EVQLVESGGGLVQAGGSLRLSCAASGRTYAMAWFRQAPGKEREFVAAISIVTDYADSVKGRFNISRDNRENTVYLQMNSLKPEDTAVYYCAANTYYSGAYFPRGHEWYEYWGQGTQVTVSS	–	–	binding result [1]: no binding
IL6RPMP103C3 (VHH, family 14; periplasmic extract) VHH: EVQLVESGGGLVQPGGSMRLSCAATGAIFSISTMGWYRQAPGAQREFVAGVGLDGTPNYADSVKGRFTISRDNTKNTVSLQMENLKPEDTGVYYCNIDEGMDYDGNFYDRWGQGTQVTVSS	–	–	binding result [1]: no binding

Now from value to binder, other results behind:

koff [1]	koff [2]	Binder	other results
0.01 s⁻¹	–	IL6RPMP105C2 (VHH, family 6; periplasmic extract) VHH: EVQLVESGGGLVQAGGSLRLSCAASGSIFRINAMGWYRQAPGEQRELVAAAISGGSTNYADFVKGRFTISRDNAKNTVYLQMNSLKPEDTAVYYCNALVVSHNYSDYVPFPDDYWGQGTQVTVSS	–
0.01 s⁻¹	–	IL6RPMP106F7 (VHH, family 6; periplasmic extract) VHH: EVQLVESEGGLVQAGGSLRLSCAASGSIFRINAMGWYRQAPGKQRELVAAAISGGSTNYADFVKGRFTISRDNAKNTVYLQMNSLKPEDTAVYYCNALVVSHNYSDYVPFPDDYWGQGTQVTVSS	–
0.01 s⁻¹	0.01 s⁻¹	IL6RPMP105B8 (VHH, family 3; periplasmic extract) VHH: EVQLVESGGGLVRAGGSLRLSCAASGFAFDDYAIGWFRQAPGKEREGVSSISSSNGNTYYADSVRGRFTISSDNAKNTVYLQMNSLKPEDTGVYYCAAIWGIFFNEKMPVGAYDYWGQGTQVTVSS	–
–	0.00045 s⁻¹	IL6RPMP103A4 (VHH) VHH: EVQLVESGGGLVQPGGSLRLSCAASGSIFSINTMGWYRQVPGKQRELVATVRSGSITNYADSVQDRFTITRDIDENTVYLQMNSLKPEDTAVYYCLTRASVPGRGYQDYWGQGTQVTVSS	–
–	0.00074 s⁻¹	IL6RPMP100D11 (VHH) VHH: EVQLVESGGGLVQAGDSLRLSCLASGRSFKDDAMGWFRQAPGKEREFVSGIDWRGNIVDAESVKGRFTISRENAKNTLYLQMNHLKPEDTAVYYCAASSVFSDLRYRKNPKYWGQGTQVTVSS	–
–	0.0009 s⁻¹	IL6RPMP108D10 (VHH) VHH: EVQLVESGGGSVQAGGSLRLSCTASGRTFSDYDMGWFRQAPGKERECVAVIDTNGDNTLTVGSVKGRFAISRDNAKNTVYLQMNSLLPEDTAVYTCAAGAWSSLRSTAANYWGQGTQVTVSS	–
–	0.00074 s⁻¹	IL6RPMP108F7 (VHH) VHH: EVQLVESGGGLVQAGGSLRLSCTASGRTFSDYDMGWFRQAPGKERECVAVIDTNGDNTLTVGSVKGRFAISRDNAKNTVYLQMNSLLPEDTAVYTCAAGAWSSLRSTAANYWGQGTQVTVSS	–
–	0.00079 s⁻¹	IL6RPMP108D1 (VHH) VHH: EVQLVESGGGLVQAGGSLRLSCTASGRTFSDYDMGWFRQAPGKERECVAVIDTNGDNTLTVGSVKGRFAISRDNAKNTVYLQMNSLLPEDTAVYTCAAGAWSSLRSTAANYWGQGTKVTVSS	–
–	0.00074 s⁻¹	IL6RPMP103A5 (VHH) VHH: EVQLVESGGGLVQAGDSLRLSCVASGLPFSTLHMGWFRQAPGKEHESVSAISSDGGSEYYAGSVKGRFTISRDNAKNTVYLQMNSLKPEDTAVYYCAADPRRIGANIKYSDYWGQGTQVTVSS	–
0.01 s⁻¹	–	IL6RPMP107E4 (VHH, periplasmic extract) VHH: EVQLVESGGGLVQAGGSLRLSCAASGSIDRINAMGWYRQAPGKQRDFLAVITDGDKTLYADSVKGRFTISNDNAKNTVYLQMNSLKPEDTAVYYCNAYQAGWGDYWGQGTQVTVSS	–
0.00027 s⁻¹	0.00045 s⁻¹	IL6RPMP100G11 (VHH, family 4; also called IL6R100G11) VHH: EVQLVESGGGLVQAGGSLRLSCAASGRGFSPYTMGWFRQAPGKERVFVAGISWSTGIAHYTDSVKGRFTISRDNAKNTGSLQMNSLKPEDTAVYYCAVVQTTKGNYDYWGQGTQVTVSS	IC50, IL-6-dependent proliferation of TF-1 cells [3]: 116 nM
0.00058 s⁻¹	0.001 s⁻¹	IL6RPMP101B6 (VHH, family 7; periplasmic extract) VHH: EVQLVESGGGLVQAGGSLRLSCAASGSDFSIKAMGWYRQAPGKQRELVARITSGGSTVYADSVKGRFTISRDNAKNTVYLQMNSLKPEDATVYYCNAIVTYSDYDLGNDYWGQGTQVTVSS	–

Source: patent publication US20120171209A1 (Ablynx, published 2012)
